These results are taken from paper PMC8346855.

This experiment concerns the target angiotensin II-bound mouse angiotensin II type 1 receptor F117W Δ324 (mouse | human). Put plainly: cross-linking + other: high-mass MALDI-MS; angiotensin II-bound AT1R (angII-AT1R), 5 µM, mixed with partner protein at various concentrations, 1 h at room temperature, BS(PEG)9 cross-linking, 1.0 µM β-Gal as internal standard; 20 mM Hepes pH 7.5, 40 mM NaCl, 0.01% LMNG; Ka = 1/Kd.

B1: mini-Gq (domain or fragment)
chain: GIEKQLQKDKQVYRATHRLLLLGADNSGKSTIVKQMRILHGGSGGSGGTSGIFETKFQVDKVNFHMFDVGGQRDERRKWIQCFNDVTAIIFVVDSSDYNRLQEALNDFKSIWNNRWLRTISVILFLNKQDLLAEKVLAGKSKIEDYFPEFARYTTPEDATPEPGEDPRVTRAKYFIRDEFLRISTASGDGRHYCYPHFTCAVDTENARRIFNDCKDIILQMNLREYNLV
B1: the Ka is 480000 M⁻¹.
